T1: FcγRIIa R (human, UniProt P12318 34-217)
T1 construct: extracellular domain; also called FcgRIIa R type; 2aR; not shown: His tag at the C terminus
T1 sequence (looked up): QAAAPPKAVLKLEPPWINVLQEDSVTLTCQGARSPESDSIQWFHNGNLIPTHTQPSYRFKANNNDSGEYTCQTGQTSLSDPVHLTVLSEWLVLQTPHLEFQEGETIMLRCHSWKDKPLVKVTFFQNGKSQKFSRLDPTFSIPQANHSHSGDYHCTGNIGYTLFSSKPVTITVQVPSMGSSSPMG

T2: FcγRIIb (human, UniProt P31994 43-217)
T2 construct: extracellular domain; also called FcgRIIb; 2b; not shown: His tag at the C terminus
T2 sequence (looked up): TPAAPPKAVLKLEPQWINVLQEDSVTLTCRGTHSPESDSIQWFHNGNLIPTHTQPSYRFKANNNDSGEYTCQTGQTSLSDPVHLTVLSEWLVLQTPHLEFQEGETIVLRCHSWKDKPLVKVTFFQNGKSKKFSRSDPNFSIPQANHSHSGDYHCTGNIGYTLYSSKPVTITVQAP

T3: FcγRIIb extracellular domain with C-terminal His tag (human, UniProt P31994 43-217)
T3 construct: extracellular domain; also called FcgRIIb; 2b; not shown: His tag at the C terminus
T3 sequence (looked up): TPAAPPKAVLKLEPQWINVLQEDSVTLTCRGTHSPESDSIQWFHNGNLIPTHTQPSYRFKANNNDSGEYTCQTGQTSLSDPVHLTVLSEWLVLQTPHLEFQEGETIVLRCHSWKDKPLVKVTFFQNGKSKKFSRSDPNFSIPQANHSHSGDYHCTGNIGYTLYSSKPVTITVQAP


Key:
[1] = molecular target: T1, FcγRIIa R; experiment: SPR, relative to GpH7-A5/GpH7-B3/GpL16-k0
[2] = molecular target: T2, FcγRIIb; experiment: SPR, relative to GpH7-A5/GpH7-B3/GpL16-k0
[3] = molecular target: T1, FcγRIIa R; experiment: SPR; He/Con_2aR divided by He/Con_2b (FcγRIIa R over FcγRIIb)
[4] = molecular target: T4, FcγRIIIa extracellular domain with C-terminal His tag (human, UniProt P08637 17-208); experiment: SPR (Biacore); He/Con_3a divided by He/Con_2b (FcγRIIb)
T4 construct: extracellular domain; also called FcgRIIIa; 3a; not shown: His tag at the C terminus

[5] = molecular target: T4, FcγRIIIa extracellular domain with …; experiment: SPR (Biacore), FcγR as analyte over captured antibody; GpH7-A5/GpH7-B3/GpL16-k0 = 100
Description: (§1) The heterodimerized antibodies He Abs in which one of the H chains was introduced with an alteration were assayed for their binding activities to each activating FcγR and inhibitory FcγR according to the method described in Example 4. […] The activating FcγRs in FIGS. 26, 27, 28, and 29 are FcγRIa, FcγRIIa (R), FcγRIIa (H), and FcγRIIIa, respectively.
(§2) Analysis of interaction between objective antibody and the FcγR was carried out using Biacore T100 (GE Healthcare). HBS-EP+ (GE Healthcare) was used as the running buffer, and the measurement temperature was set to 25° C. Chips produced by immobilizing the antigen peptide by the amine coupling method to a Series S Sencor Chip CM5 (GE Healthcare), or alternatively, chips produced by allowing preliminarily biotinylated antigen peptides to interact with and immobilize onto a Series S Sensor Chip SA (certified) (GE Healthcare) were used. Antibodies of interest were captured onto an antigen peptide-immobilized chip, and allowed to interact to each FcγR diluted with running buffer. To regenerate and repeatedly use the chip, the antibodies captured on the chip were washed off by reacting 10 mM glycine-HCl, pH 1.5.

[6] = molecular target: T3, FcγRIIb extracellular domain with …; experiment: as above
Description: as §1, §2

T4 sequence (P08637 17-208): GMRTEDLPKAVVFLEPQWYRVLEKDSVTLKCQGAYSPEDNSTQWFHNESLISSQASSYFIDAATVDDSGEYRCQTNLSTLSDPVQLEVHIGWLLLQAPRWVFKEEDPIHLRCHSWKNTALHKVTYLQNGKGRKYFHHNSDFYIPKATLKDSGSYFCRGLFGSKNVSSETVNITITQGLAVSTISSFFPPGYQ

Row | He/Con_2aR [1] [control = 100] | He/Con_2b [2] [control = 100] | He_2aR/2b [3] [ratio] | He_3a/2b (IIIa/IIb) [4] [ratio] | He/Con_3a [5] | He/Con_2b [6] | Binder
1 | -5.6 | 1 | -5.55 | – | – | – | GpH7-A5/GpH7-B3 variant V266_11K/GpL16-k0 (antibody, human IgG1, kappa, Heterodimerized anti-glypican-3 IgG1; mutation in the GpH7-B3 chain only; also called He Ab) heavy 1: not shown heavy 2: not shown light: DIVMTQSPLSLPVTPGEPASISCQASESLVHSNRNTYLHWYLQKPGQSPQLLIYKVSNRFSGVPDRFSGSGSGTDFTLKISRVEAEDVGVYYCSQNTHVPPTFGQGTKVEIERTVAAPSVFIFPPSDEQLKSGTASVVCLLNNFYPREAKVQWKVDNALQSGNSQESVTEQDSKDSTYSLSSTLTLSKADYEKHKVYACEVTHQGLSSPVTKSFNRGEC
2 | – | – | – | 0.28 | 28 % of control | 101 % of control | GpH7-A5/GpH7-B3 variant N325_01G/GpL16-k0 (antibody, human IgG1, kappa, Heterodimerized IgG1 antibody; alteration in the GpH7-B3 chain only; also called He Ab) heavy 1: not shown heavy 2: not shown light: DIVMTQSPLSLPVTPGEPASISCQASESLVHSNRNTYLHWYLQKPGQSPQLLIYKVSNRFSGVPDRFSGSGSGTDFTLKISRVEAEDVGVYYCSQNTHVPPTFGQGTKVEIERTVAAPSVFIFPPSDEQLKSGTASVVCLLNNFYPREAKVQWKVDNALQSGNSQESVTEQDSKDSTYSLSSTLTLSKADYEKHKVYACEVTHQGLSSPVTKSFNRGEC
3 | – | – | – | 0.77 | 46.8 % of control | 60.8 % of control | GpH7-A5/GpH7-B3 variant A327_15Y/GpL16-k0 (antibody, human IgG1, kappa, Heterodimerized IgG1 antibody; alteration in the GpH7-B3 chain only; also called He Ab) heavy 1: not shown heavy 2: not shown light: DIVMTQSPLSLPVTPGEPASISCQASESLVHSNRNTYLHWYLQKPGQSPQLLIYKVSNRFSGVPDRFSGSGSGTDFTLKISRVEAEDVGVYYCSQNTHVPPTFGQGTKVEIERTVAAPSVFIFPPSDEQLKSGTASVVCLLNNFYPREAKVQWKVDNALQSGNSQESVTEQDSKDSTYSLSSTLTLSKADYEKHKVYACEVTHQGLSSPVTKSFNRGEC
4 | – | – | – | 0.49 | 68.6 % of control | 140 % of control | GpH7-A5/GpH7-B3 variant A327_10E/GpL16-k0 (antibody, human IgG1, kappa, Heterodimerized IgG1 antibody; alteration in the GpH7-B3 chain only; also called He Ab) heavy 1: not shown heavy 2: not shown light: DIVMTQSPLSLPVTPGEPASISCQASESLVHSNRNTYLHWYLQKPGQSPQLLIYKVSNRFSGVPDRFSGSGSGTDFTLKISRVEAEDVGVYYCSQNTHVPPTFGQGTKVEIERTVAAPSVFIFPPSDEQLKSGTASVVCLLNNFYPREAKVQWKVDNALQSGNSQESVTEQDSKDSTYSLSSTLTLSKADYEKHKVYACEVTHQGLSSPVTKSFNRGEC
5 | – | – | – | 0.65 | 51.2 % of control | 78.8 % of control | GpH7-A5/GpH7-B3 variant A327_20W/GpL16-k0 (antibody, human IgG1, kappa, Heterodimerized IgG1 antibody; alteration in the GpH7-B3 chain only; also called He Ab) heavy 1: not shown heavy 2: not shown light: DIVMTQSPLSLPVTPGEPASISCQASESLVHSNRNTYLHWYLQKPGQSPQLLIYKVSNRFSGVPDRFSGSGSGTDFTLKISRVEAEDVGVYYCSQNTHVPPTFGQGTKVEIERTVAAPSVFIFPPSDEQLKSGTASVVCLLNNFYPREAKVQWKVDNALQSGNSQESVTEQDSKDSTYSLSSTLTLSKADYEKHKVYACEVTHQGLSSPVTKSFNRGEC
6 | – | – | – | 0.48 | 45.8 % of control | 94.7 % of control | GpH7-A5/GpH7-B3 variant A327_03V/GpL16-k0 (antibody, human IgG1, kappa, Heterodimerized IgG1 antibody; alteration in the GpH7-B3 chain only; also called He Ab) heavy 1: not shown heavy 2: not shown light: DIVMTQSPLSLPVTPGEPASISCQASESLVHSNRNTYLHWYLQKPGQSPQLLIYKVSNRFSGVPDRFSGSGSGTDFTLKISRVEAEDVGVYYCSQNTHVPPTFGQGTKVEIERTVAAPSVFIFPPSDEQLKSGTASVVCLLNNFYPREAKVQWKVDNALQSGNSQESVTEQDSKDSTYSLSSTLTLSKADYEKHKVYACEVTHQGLSSPVTKSFNRGEC
7 | – | – | – | 0.33 | 42.4 % of control | 127 % of control | GpH7-A5/GpH7-B3 variant A327_07I/GpL16-k0 (antibody, human IgG1, kappa, Heterodimerized IgG1 antibody; alteration in the GpH7-B3 chain only; also called He Ab) heavy 1: not shown heavy 2: not shown light: DIVMTQSPLSLPVTPGEPASISCQASESLVHSNRNTYLHWYLQKPGQSPQLLIYKVSNRFSGVPDRFSGSGSGTDFTLKISRVEAEDVGVYYCSQNTHVPPTFGQGTKVEIERTVAAPSVFIFPPSDEQLKSGTASVVCLLNNFYPREAKVQWKVDNALQSGNSQESVTEQDSKDSTYSLSSTLTLSKADYEKHKVYACEVTHQGLSSPVTKSFNRGEC

— patent US20150344570A1 (published 2015)
